Experiments:
[1] = target: full-length LRRK1 (Leucine Rich Repeat Kinase 1) (human) (UniProt Q38SD2); assay: mass photometry; full-length LRRK1 diluted to 100 nM in 20 mM HEPES pH 7.4, 150 mM NaCl, 2.5 mM MgCl2, 1 mM GDP, 0.5 mM TCEP, 0.5% glycerol; 30 min at room temperature; Refeyn TwoMP; Gaussian fits of the histograms, law of mass action; dimer to monomers; estimated Kd
[2] = target: full-length LRRK1 (Leucine Rich Repeat Kinase 1) (human) (UniProt Q38SD2); assay: cryo-EM structure; 5.2 μM LRRK1(FL) with GDP, 0.06% brij-35 added directly before vitrification; C2 symmetry

full-length LRRK1 (Leucine Rich Repeat Kinase 1), Q38SD2-1 1-2015
Kd [1]: 600 nM | stoichiometry N [2]: 2
